The source of these data is paper PMC3574147, “Association of RNAs with Bacillus subtilis Hfq”.

This series deals with T1, Hfq (Bacillus subtilis, UniProt O31796 1-73).
T1 sequence: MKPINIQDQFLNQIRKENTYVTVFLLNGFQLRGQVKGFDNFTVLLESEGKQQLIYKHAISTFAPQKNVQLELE
Kind of series: EMSA; 10 mM Mg2+, 2.5 ng/ul yeast tRNA; 50 mM Hepes pH 7.5, 150 mM NaCl, 10 mM MgCl2, 2.5 ng/ul yeast tRNA, ~2 fmol RNA in 10 ul, 30 min at 25 C; 5% native TBE PAGE. As to conditions: protein: recombinant; tags: His6 (pHisII vector); chain copies: 6; label: 32P (gamma-32P ATP). For orientation: In EMSA bound probe runs differently from free probe, usually more slowly.

B1: SR4 antitoxin RNA (structured_RNA)
RNA: GGGUAAUGAUACAAUUAUAUAAUUAUUUUUUGCAUUUUGUUUAAUUAAAUGCAAAGCUGCCCAUCAAAGGGCUUGCUCGUUGUCAAAUCUUAAAAUAAAAAGACCAGGGUGUUGGUAGCACCCUGGCUCUGUACAAGCGUAGGCCUAACCCUUCAGGUGUCCAAACUCAAGGGAAGGUCUAUUUUUU
As for B1, the binding result is given as “binds”.
